Substitutions are numbered along the chain they refer to.
T1: AsphyA D422R, full length (Avena sativa, UniProt P06593 1-1129, D422R, phycocyanobilin chromophore assembled)
T1 construct: Avena sativa phytochrome A, full length, with D422R; source: phycocyanobilin added in vitro
T1 sequence (looked up): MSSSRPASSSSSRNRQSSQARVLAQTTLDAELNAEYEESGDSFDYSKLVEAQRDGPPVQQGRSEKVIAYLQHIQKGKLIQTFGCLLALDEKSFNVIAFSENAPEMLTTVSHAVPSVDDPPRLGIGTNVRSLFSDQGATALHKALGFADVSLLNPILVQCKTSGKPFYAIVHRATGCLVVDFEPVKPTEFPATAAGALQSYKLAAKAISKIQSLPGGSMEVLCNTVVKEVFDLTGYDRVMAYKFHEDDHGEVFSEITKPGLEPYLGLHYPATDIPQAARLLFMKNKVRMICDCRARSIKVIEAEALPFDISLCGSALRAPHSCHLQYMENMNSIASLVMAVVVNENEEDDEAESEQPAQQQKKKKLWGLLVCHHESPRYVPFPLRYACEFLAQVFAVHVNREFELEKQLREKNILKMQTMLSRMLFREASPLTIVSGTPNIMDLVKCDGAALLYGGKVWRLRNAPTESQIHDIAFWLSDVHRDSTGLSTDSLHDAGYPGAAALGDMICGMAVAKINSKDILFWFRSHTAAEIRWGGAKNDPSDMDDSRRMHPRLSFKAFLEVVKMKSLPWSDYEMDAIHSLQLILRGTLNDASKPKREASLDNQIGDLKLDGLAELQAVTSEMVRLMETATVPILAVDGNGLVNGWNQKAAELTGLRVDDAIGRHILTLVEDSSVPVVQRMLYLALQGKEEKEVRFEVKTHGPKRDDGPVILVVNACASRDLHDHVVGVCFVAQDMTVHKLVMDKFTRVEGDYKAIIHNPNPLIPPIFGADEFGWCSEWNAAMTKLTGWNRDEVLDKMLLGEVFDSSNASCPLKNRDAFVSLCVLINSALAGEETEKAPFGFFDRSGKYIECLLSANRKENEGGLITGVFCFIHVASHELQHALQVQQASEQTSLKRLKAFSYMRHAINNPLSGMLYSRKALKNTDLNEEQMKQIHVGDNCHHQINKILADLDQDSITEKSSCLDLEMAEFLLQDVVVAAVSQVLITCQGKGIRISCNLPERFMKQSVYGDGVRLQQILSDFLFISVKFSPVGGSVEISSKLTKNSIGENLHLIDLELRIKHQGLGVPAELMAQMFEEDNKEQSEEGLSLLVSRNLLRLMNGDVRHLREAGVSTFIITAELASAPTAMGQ

T2: Avena sativa phytochrome A, full-length wild type (Avena sativa, UniProt P06593 1-1129, phycocyanobilin chromophore assembled (chromophore-binding site C322))
T2 construct: Avena sativa (oat) phytochrome A, full-length gene AsPHYA; 1129 residues by the printed construct limits (66-1129aa); Used as Pr (far-red irradiated) and Pfr (red irradiated) forms; also called AsphyA; FL-AsphyA; source: phycocyanobilin added in vitro
T2 sequence (looked up): T1 sequence (looked up) with R422D

B1: GST/strep-fused FHL (natural protein, UniProt A8MR65 1-201, looked up)
chain: MDDADKSCSPSLDHSDINDPMIVAVESLDTSKKRKLHAEESDLLPLPKHFCSEHQASLVNSSCPSSVIDYAECSYAMENTKTSDEASSSASFTGPSLYMFKDSIYSTGSSSSGYAATSSIEQCFSKVDHKTQEDTQDFTHMEFIYHDSEFAVEDLQEVLNPVESYILSSARWSVSNQDSKEATTKPTIDQEFEQYFSTLMM
notes: FHL, which with FHY1 takes part in the nuclear localization of phyA; not shown: GST, N-terminal, kept
B2: GST/strep-fused PIF3 (natural protein, UniProt O80536 1-524, looked up)
chain: MPLFELFRLTKAKLESAQDRNPSPPVDEVVELVWENGQISTQSQSSRSRNIPPPQANSSRAREIGNGSKTTMVDEIPMSVPSLMTGLSQDDDFVPWLNHHPSLDGYCSDFLRDVSSPVTVNEQESDMAVNQTAFPLFQRRKDGNESAPAASSSQYNGFQSHSLYGSDRARDLPSQQTNPDRFTQTQEPLITSNKPSLVNFSHFLRPATFAKTTNNNLHDTKEKSPQSPPNVFQTRVLGAKDSEDKVLNESVASATPKDNQKACLISEDSCRKDQESEKAVVCSSVGSGNSLDGPSESPSLSLKRKHSNIQDIDCHSEDVEEESGDGRKEAGPSRTGLGSKRSRSAEVHNLSERRRRDRINEKMRALQELIPNCNKVDKASMLDEAIEYLKSLQLQVQIMSMASGYYLPPAVMFPPGMGHYPAAAAAMAMGMGMPYAMGLPDLSRGGSSVNHGPQFQVSGMQQQPVAMGIPRVSGGGIFAGSSTIGNGSTRDLSGSKDQTTTNNNSNLKPIKRKQGSSDQFCGSS
notes: Probably Arabidopsis PIF3, as PIF1 and PIF4 are called Arabidopsis; not shown: GST, N-terminal, kept
B3: GST/strep-fused FHY1 (far-red elongated hypocotyl 1) (natural protein, UniProt Q8S4Q6 1-202, looked up)
chain: MPEVEVDNNNEKPSEINSFHHMIISSSKNVLKMEEVEVSKKRKFQTDQSDELSLLPLSKHTCFANVACSENTNGNSEIDTEYSMSSYVNSTTSMECNNDIEMKEESSGSCGEDKMISFESHLDYIYGTQNLEDFSEKVIENILYLDEQEEEEEDAKGCSSNAAKFVLSSGRWTVNQDDSTLHETKKPTIDQEFEQYFSTLML
notes: FHY1 (far-red elongated hypocotyl 1); not shown: GST, N-terminal, kept

Key:
[1] = biological target: T1, AsphyA D422R, full length; experiment: pull-down; GST/strep-fused interacting protein (1.0 μg) held on glutathione resin, phytochrome (1.0 μg) in solution, Pr and Pfr forms both tested; 60 min at 4 °C in pull-down buffer (100 mM Tris-HCl pH 7.8, 1 mM EDTA, 150 mM NaCl, 100 μg/ml BSA); western blot with oat22 and anti-GST; conditions: both partners purified
[2] = biological target: T2, Avena sativa phytochrome A, full-length …; experiment: as above; conditions: both partners purified

| Binder | binding result [1] | binding result [2] |
| --- | --- | --- |
| B1 | binds | binds |
| B2 | binds | binds |
| B3 | binds | binds |
